Target: Tissue factor (TF) on human TNBC line MDA-MB-231 cells (human) (UniProt P13726)
Assay: cell-based or functional assay

Chain of UniProt P13726 (P13726 33-295): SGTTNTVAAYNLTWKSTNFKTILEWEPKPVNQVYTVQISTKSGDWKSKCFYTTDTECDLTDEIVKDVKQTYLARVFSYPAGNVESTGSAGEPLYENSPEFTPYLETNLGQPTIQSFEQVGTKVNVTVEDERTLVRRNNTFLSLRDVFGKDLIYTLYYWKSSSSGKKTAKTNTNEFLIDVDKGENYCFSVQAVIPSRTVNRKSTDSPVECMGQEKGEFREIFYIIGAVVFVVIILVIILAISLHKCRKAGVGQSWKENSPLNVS

TF-targeting CAR1 monomer (hfVIIL-CD28-4-1BB-CD3zeta), expressed on NK92MI/fCD16 cells (from UniProt P10747 153-220; Q07011 214-255; P20963 52-164)
cytotoxicity to TNBC cells (CytoTox Homogenous Assay, E:T ratio of 10:1): 77%

Source: patent US20200352996A1
